Measured values: article PMC7162832, “An unusual metal-bound 4-fluorothreonine transaldolase from Streptomyces sp. MA37 catalyses promiscuous transaldol reactions” (Applied Microbiology and Biotechnology, 2020)

Key:
[1] = target: 4-fluorothreonine transaldolase from Streptomyces sp. MA37 (Streptomyces sp. MA37) (UniProt W0W999); experiment: SEC; ENrich High-Resolution Size Exclusion Column (Bio-Rad, 25 mL), isocratic elution; oligomeric state estimated from the retention time
FTaseMA [2] = target: T1, FTaseMA (Streptomyces sp. MA37, UniProt W0W903); experiment: biochemical; set-up: gene flFT1
Excerpt: acetaldehyde release, DNPH derivatisation and HPLC on FTaseMA

FTaseMA [3] = target: T1, FTaseMA; experiment: DNPH derivatisation and HPLC; assay type: biochemical; set-up: gene flFT1; full-length (SHMT-like S domain plus aldolase-like A domain), N-His6, from MA37 genomic DNA in pGM1190 (pMBC001), expressed in Streptomyces lividans 66; dimer
O=CCc1ccccc1 = experiment: purified protein; conditions: L-threonine 5 mM, PLP 0.1 mM, Tris-HCl pH 7.5
O=CCF = experiment: purified protein; conditions: apparent, FAd 0.12-2.4 mM, L-threonine 20 mM (methods: 0.5-20 mM aldehyde, 5 mM L-Thr), PLP 0.1 mM, Tris-HCl pH 7.5
CC(C)C=O = experiment: purified protein; conditions: L-threonine 5 mM, PLP 0.1 mM, Tris-HCl pH 7.5
O=CCCl = experiment: purified protein; conditions: L-threonine 5 mM, PLP 0.1 mM, Tris-HCl pH 7.5

Q: Which stoichiometry N [1] does the source give for “4-fluorothreonine transaldolase from Streptomyces sp. MA37 (from UniProt W0W999 1-299) (enzyme)” here?
A: The stoichiometry N was 2.

Q: With `C[C@@H](O)[C@H](N)C(=O)O` [compound 6, L-threonine] as the molecule, how does the Km (FTaseMA [2]) read?
A: Its Km is 1180 ± 7 µM.

Q: Which Km (FTaseMA [3]) does the source give for `O=CCO` [compound 9, glycolaldehyde] here?
A: The Km was 357 ± 10 µM.

Q: `CCC=O` [compound 11, propanal] was tested. Which Km (FTaseMA [3]) did it give?
A: Its Km is 1450 ± 179 µM.

Q: `C[C@H](O)[C@H](N)C(=O)O` [compound 19, L-allo-threonine] was tested. Which Km (FTaseMA [2]) did it give?
A: Its Km is 1180 ± 6 µM.

Q: With FTaseMA (Streptomyces sp. MA37) as the molecule, how does the Km (O=CCc1ccccc1) read?
A: The Km was 358 ± 6 µM.

Q: What about the kcat (O=CCc1ccccc1) of the same molecule?
A: The kcat was 0.00975 s⁻¹.

Q: What about the kcat/Km (O=CCc1ccccc1) of the same molecule?
A: The kcat/Km was 27.2 M⁻¹ s⁻¹.

Q: What about the Km (O=CCF) of the same molecule?
A: The Km was 241 ± 2 µM.

Q: What about the kcat (O=CCF) of the same molecule?
A: The kcat was 0.03 s⁻¹.

Q: And the kcat/Km (O=CCF)?
A: The kcat/Km was 125 M⁻¹ s⁻¹.

Q: And the Km (CC(C)C=O)?
A: Its Km is 535 ± 78 µM.

Q: And the kcat (CC(C)C=O)?
A: Its kcat is 0.0135 s⁻¹.

Q: And the kcat/Km (CC(C)C=O)?
A: The kcat/Km was 25.4 M⁻¹ s⁻¹.

Q: What about the Km (O=CCCl) of the same molecule?
A: Its Km is 1350 ± 1 µM.

Q: What about the kcat (O=CCCl) of the same molecule?
A: Its kcat is 0.0238 s⁻¹.

Q: And the kcat/Km (O=CCCl)?
A: The kcat/Km was 17.6 M⁻¹ s⁻¹.
